Experimental findings from US20250320292A1 are described below.

The assay concerns the target COL4A3 (immobilised as Fc-rat COL4A3 or COL4A3-His). The experiment in a line: BLI (Octet RED96); COL4A3 immobilised (Fc-rat COL4A3 on anti-human Fc or COL4A3-His on HIS1K, not said which), test article titrated from 50 nM. (In general: Biolayer interferometry detects binding as a change in optical thickness at a sensor tip.)

B1: CDAB14 (scFv)
chain: DCGPPPDIPNARPILGRHSKFAEQSKVAYSCNNGFKQVPDKSNIVVCLENGQWSSHETFCEKSCVAPERLSFASLKKEYLNMNFFPVGTIVEYECRPGFRKQPPLPGKATCLEDLVWSPVAQFCKKKSCPNPKDLDNGHINIPTGILFGSEINFSCNPGYRLVGVSSTFCSVTGNTVDWDDEFPVCTEIHCPEPPKINNGIMRGESDSYTYSQVVTYSCDKGFILVGNASIYCTVSKSDVGQWSSPPPRCIEKSKVPTKKPTINVPSTGTPSTPQKPTTESVPNPGDQPTPQKPSTVKVSATQHVPVTKTTVRHPIRTSTDKGEPNTGGGGGSGGGGSGGGGSGGGGSQVQLLESGPGLVKPSGTLSLTCTVSGGSISSTNWWTWVRQSPGTGLEWIGHIYHSGSTDYNPSLKSRVTISIDKSKNQFSLKMTSVTAADTAVYYCACAAQYHWKGLDPWGHGTLVTVSSGGGGGSGGGGSGGGGSDIVMTQTPLSLSVTPGQPASISCMSSQSLLHSDGKTYLYWYLQKPGQPPQLLIYEVSNRFSGVPDRFSGSGSGTDFTLKISRVEAEDVGIYYCMQSIQLPITFGQGTRLEIKHHHHHH
In general, Kd refers to a measure of binding affinity in units of concentration. The low end stands for higher affinity, the high end for lower affinity. B1 came in with a Kd of 23 µM.
